Test results as given in US20170198026A1, “Compositions And Methods For Treating Tumors And Immune Based Inflammatory Diseases” (The Schepens Eye Research Institute, Inc., priority 2014, published 2017).
“Also recorded” adds a separate entry of the source. Each block holds one molecule with its values, some of them ahead of it.

Assays:
EMR2 = target: T1, EMR2 (Homo sapiens, UniProt Q9UHX3); experiment: Blocking EMR2 ligand binding with soluble chondroitin sulfate in tolerogenic APC / lymphocyte co-culture; type: cell-based
T1 construct: endogenous in cells; host or cells: human peripheral blood monocytes (from Leukopac PBMC) cultured with TGFb2 and tetanus toxoid, giving tolerogenic APC
T1 sequence (Q9UHX3 24-823): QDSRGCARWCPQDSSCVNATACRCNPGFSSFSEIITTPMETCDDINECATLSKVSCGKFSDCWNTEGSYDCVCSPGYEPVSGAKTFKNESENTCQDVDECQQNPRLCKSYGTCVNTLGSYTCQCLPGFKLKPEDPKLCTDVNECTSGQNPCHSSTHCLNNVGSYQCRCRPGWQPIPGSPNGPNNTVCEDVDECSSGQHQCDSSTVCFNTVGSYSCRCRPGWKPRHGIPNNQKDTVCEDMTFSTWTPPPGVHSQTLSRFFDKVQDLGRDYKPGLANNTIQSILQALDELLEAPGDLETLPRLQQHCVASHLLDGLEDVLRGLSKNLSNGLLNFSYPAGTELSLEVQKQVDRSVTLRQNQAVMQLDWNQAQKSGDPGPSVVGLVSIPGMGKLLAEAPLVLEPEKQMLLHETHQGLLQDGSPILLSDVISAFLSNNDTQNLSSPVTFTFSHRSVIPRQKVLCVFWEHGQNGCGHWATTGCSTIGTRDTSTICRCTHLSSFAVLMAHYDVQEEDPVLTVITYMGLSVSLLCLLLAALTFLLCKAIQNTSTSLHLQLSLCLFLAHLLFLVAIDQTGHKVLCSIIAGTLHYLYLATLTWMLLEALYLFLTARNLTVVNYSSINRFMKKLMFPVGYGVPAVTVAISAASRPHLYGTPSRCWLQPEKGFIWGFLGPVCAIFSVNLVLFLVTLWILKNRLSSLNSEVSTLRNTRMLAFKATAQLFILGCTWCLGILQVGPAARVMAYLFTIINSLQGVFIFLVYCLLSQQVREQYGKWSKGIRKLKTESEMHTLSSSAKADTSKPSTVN
Description: Monocytes were cultured as outlined above. Soluble chondroitin sulfate from shark cartilage (Sigma-Aldrich, St. Louis, Mo.) was used to bind to EMR and block signaling at a concentration of 1.5 mg/mL. CD25 and FoxP3 expression as well as intracellular cytokine functionality was tested.
To mediate cell interactions, EMR2 binds to chondroitin sulfate GAGs on the opposing cell. To block EMR2 signaling and the induction of T regulatory cells, we added soluble chondroitin sulfate to the cell culture. Saturating the culture with soluble chondroitin sulfate competitively binds up available EMR2 molecules and subsequently block signaling from the APC to the lymphocytes.
We treated APC with soluble chondroitin sulfate (1.5 mg/mL) in the same conditions listed above. By using a dose curve, we found 1.5 mg/mL was the ideal concentration for saturating EMR2 receptors. Post co-culture with lymphocytes, we repeated surface and intracellular staining of lymphocytes to check for differences in FoxP3+ cells (FIG. 9).

human APCs = experiment: Surface markers on human tolerogenic APC by flow cytometry; type: cell-based
Description: Isolated cells were plated on sterile petri dishes (BD Falcon, Franklin Lakes, N.J.) in serum-free culture medium, RPMI-1640 supplemented with Glutamax (Invitrogen, Carlsbad, Calif.), 1 mM sodium pyruvate, 0.1 mM non-essential amino acids, 100 U/mL Penicillin/Streptomycin, 10 mM HEPES (Invitrogen, Carlsbad, Calif.), Insulin/Transferrin/Selenium (ITS) (Invitrogen, Carlsbad, Calif.), and 0.1% BSA (Sigma-Aldrich, St. Louis, Mo.). Cells were cultured with or without 1 ng/mL porcine TGFβ2 (R&D Systems, Minneapolis, Minn.) for at least six hours. Cells were then pulsed with or without tetanus toxoid (TT) antigen (List Biological Laboratories, Campbell, Calif.) in serum-free media and incubated overnight in 37° C., 5% CO2.
APC were analyzed by flow cytometry to confirm the expression of myeloid and tolerogenic markers. CD14 (constitutive on monocyte-derived cells), Immunoglobulin-like transcript 3 (ILT3, cell surface immunoglobulin that co-ligates to APC stimulatory receptors to downregulate activation signals (Cella et al., 1997)), Programmed cell death 1 ligand 1 (PD-L1, well-known immunosuppressive ligand), and EMR2 were measured. Monoclonal antibodies to ILT3 and PD-L1 were purchased from eBioscience (San Diego, Calif.) and the monoclonal antibody to EMR2 was purchased from R&D Systems (Minneapolis, Minn.).

[1] = both TGFβ2 (1 ng/mL) and antigen (TT) compared to antigen or TGFβ2 alone

ideal concentration for saturating EMR2 receptors (EMR2; dose curve, APC culture): 1.5 mg/mL
Molecule: chondroitin sulfate [soluble chondroitin sulfate]
CD25+ FoxP3+ cell populations (Treg production) (EMR2; 1.5 mg/mL soluble chondroitin sulfate, APC treated with antigen and TGFβ, CD4+ gated lymphocytes post co-culture): no increase; also recorded: successfully blocks Treg production

B1: TGFβ2: porcine TGFβ2 (R&D Systems), aqueous humor immunosuppressive factor used to generate tolerogenic APC (protein, UniProt P09858 303-435, looked up)
Transforming growth factor …: ALDAAYCFRNVQDNCCLRPLYIDFKRDLGWKWIHEPKGYNANFCAGACPYLWSSDTQHSRVLSLYNTINPEASASPCCVSQDLEPLTILYYIGKTPKIEQLSNMIVKSCKCSKTKLAAFARLYHSHSNLGSET
EMR2 expression on APC (human APCs; TGFβ2 (1 ng/mL) and antigen (TT)): also upregulated
ILT3 expression on APC (human APCs; [1]): significantly (p≦0.05) upregulated
PD-L1 expression on APC (human APCs; [1]): significantly (p≦0.05) upregulated
